Reference: article PMC8605244 (The Journal of Biological Chemistry, 2021)
Changes are numbered by the printed parent chain. One block for each binder: values may come before it.

How the values were obtained:
[1] = biological target: T1, H-Ras, biotinylated, loaded with a nonhydrolyzable GTP analog (Ras-GTP) or with GDP (Ras-GDP) (UniProt P01112 1-189, biotin on the AVI-tag (attached in vivo by BirA)); test: SPR; OpenSPR, streptavidin chip; biotinylated Ras in the GDP-bound state immobilised at 50 ug/ml; RASSF5 variants injected at 1.25-20 uM; Ras buffer (Tris 20 mM, NaCl 100 mM, MgCl2 5 mM, pH 7.5) with 0.1% Tween20 and 0.5% BSA; 30 ul/min; conditions: both partners purified
T1 construct: H-Ras; One construct used in two nucleotide states; also called biotinylated-Ras; not shown: His tag, N-terminal, cleaved; AVI-tag, C-terminal, kept
T1 sequence (P01112 whole entry): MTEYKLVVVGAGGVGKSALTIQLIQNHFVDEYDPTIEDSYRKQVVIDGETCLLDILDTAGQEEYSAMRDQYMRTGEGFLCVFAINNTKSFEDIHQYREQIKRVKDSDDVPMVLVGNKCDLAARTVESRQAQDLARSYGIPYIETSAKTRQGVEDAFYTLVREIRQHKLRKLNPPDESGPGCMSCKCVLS

[2] = biological target: T1, H-Ras, biotinylated, loaded with a …; test: SPR; OpenSPR, streptavidin chip; biotinylated Ras in the GTP-bound state (nonhydrolyzable analog) immobilised at 50 ug/ml; RASSF5 variants injected at 1.25-20 uM; Ras buffer (Tris 20 mM, NaCl 100 mM, MgCl2 5 mM, pH 7.5) with 0.1% Tween20 and 0.5% BSA; 30 ul/min; conditions: both partners purified

B1: RASSF5 RA domain mutant D2 (RTRHWKR) (designed binder)
chain: EIKQKIDSYNSRERTRHGMKLSEDGTYTGWIKVHLKLRRPVTVPAGIRPQSIYDAIKEVNPAATTDKRTSFYLPLDAIKQLKISSTTTVSEVIQGLLKKFRVVDNPQKFALFKRIHKDGQVLFQKLSIADYPLYLRLLAGPDTDVLSFVLKENETGEV
notes: RASSF5 (NORE1A) RA domain, residues 205-362, with RTRHWKR at positions 218, 219, 220, 221, 234, 286, 305 (WT: KHCLFHM); The numbers follow PDB 3DDC; Selected by yeast surface display against Ras-GDP; source: E. coli BL21(DE3), pET28a, purified (Ni beads, Superdex75 SEC)
Kd [1]: 1.6 ± 0.3 µM

B2: RASSF5 RA domain mutant D3 (FRKFWHK) (designed binder)
chain: B1 chain with R14F, T15R, R16K, H17F, K82H, R101K
notes: RASSF5 (NORE1A) RA domain, residues 205-362, with FRKFWHK at positions 218, 219, 220, 221, 234, 286, 305 (WT: KHCLFHM); The numbers follow PDB 3DDC; Selected by yeast surface display against Ras-GDP; source: E. coli BL21(DE3), pET28a, purified (Ni beads, Superdex75 SEC)
Kd [1]: 1.6 ± 0.2 µM

Further lines, results first:

Kd [1]: 3 ± 0.5 µM
B3: RASSF5 RA domain mutant T2 (YRRLYKR) (designed binder)
chain: B1 chain with R14Y, T15R, H17L, W30Y
notes: RASSF5 (NORE1A) RA domain, residues 205-362, with YRRLYKR at positions 218, 219, 220, 221, 234, 286, 305 (WT: KHCLFHM); The numbers follow PDB 3DDC; Selected by yeast surface display against Ras-GTP; source: E. coli BL21(DE3), pET28a, purified (Ni beads, Superdex75 SEC)

Kd [2]: 1 ± 0.15 µM
Kd [1]: 1.6 ± 0.3 µM
B4: RASSF5 RA domain mutant T3 (WSRLYKR) (designed binder)
chain: B1 chain with R14W, T15S, H17L, W30Y
notes: RASSF5 (NORE1A) RA domain, residues 205-362, with WSRLYKR at positions 218, 219, 220, 221, 234, 286, 305 (WT: KHCLFHM); The numbers follow PDB 3DDC; Selected by yeast surface display against Ras-GTP; source: E. coli BL21(DE3), pET28a, purified (Ni beads, Superdex75 SEC)
